Test results taken from article PMC5081248.

Key:
[1] = molecular target: Andes virus (ANDV) glycoprotein C, wild type, from virus-like particles (Andes virus strain Chi-7913); assay: sucrose gradient sedimentation
[2] = molecular target: Puumala virus (PUUV) glycoprotein C ectodomain, soluble GC (residues 659-1106 of GPC) (Puumala virus P360 strain); assay: crystal structure

Substance	stoichiometry N [1]	stoichiometry N [2]
Andes virus (ANDV) glycoprotein C, wild type, from virus-like particles (natural protein)	3	–
Puumala virus (PUUV) glycoprotein C ectodomain, soluble GC (residues 659-1106 of GPC) (domain or fragment)	–	3
